These results are taken from patent US20240116987A1 (UNIVERSIT CATHOLIQUE DE LOUVAIN, published 2024).

Ends that are not written are not given here.

For data set [1], the target named is LDH-5 (tetramer of human LDH-M subunits, LDH-M4) (human, UniProt P00338 2-332). In words: cell-based or functional assay.
Data set [2] concerns the target T1, LDH-Htr (truncated human LDH-H, dimeric) (human, UniProt A5A6N7 21-334 (Pan troglodytes entry)).
T1 construct: Recombinant from E. coli; Mainly a dimer, in equilibrium with a weak tetramer; In MST it was labelled with Red-dye-NHS and used at 100 nM; also called hLDH-Htr; truncated LDH-H; not shown: N-terminal 6-His tag from pET-28a (NdeI site)
As to the kind of experiment: MST, labelled LDH-Htr 100 nM, 1.5 s on time, n=3. The procedure: MST measurements were performed on a Nanotemper® Monolith NT.115 instrument (NanoTemper Technologies®) using Red-dye-NHS fluorescent labelling. […] Measurements were performed in 50 mM sodium phosphate, pH 7.6, and 100 mM NaCl containing 0.01% Tween-20 in standard-treated capillaries (NanoTemper Technologies®). The final concentration of proteins in the assay was 100 nM. Ligands were titrated in 1:1 dilutions following manufacturer's recommendations. Experiments were performed in triplicates using 40% LED power, high MST power, […] and Laser off time 3 s. Poypeptides were evaluated for their thermophoretic pattern, and Kd's were extracted from raw data at a 1.5 s MST on time following the manufacturer's instructions.

As a reminder, the Kd is the equilibrium constant for the complex coming apart.

T1 sequence (A5A6N7 21-334): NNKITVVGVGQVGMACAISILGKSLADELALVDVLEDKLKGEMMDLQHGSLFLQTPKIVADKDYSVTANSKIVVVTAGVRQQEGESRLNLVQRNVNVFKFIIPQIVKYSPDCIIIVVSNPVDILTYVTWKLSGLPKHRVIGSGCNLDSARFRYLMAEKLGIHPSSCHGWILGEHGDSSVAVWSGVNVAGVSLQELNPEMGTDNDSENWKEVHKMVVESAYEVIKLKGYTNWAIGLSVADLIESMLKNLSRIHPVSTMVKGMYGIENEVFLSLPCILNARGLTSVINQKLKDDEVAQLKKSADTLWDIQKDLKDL

B1: polypeptide GP-16 (peptide)
peptide: Ac-GEMMDLQHGSLFLQTP-NH2
notes: Synthetic peptide bought from Genecust
On to B1, for which the “EC50 of ΔTm (NanoDSF destabilization) of tetrameric LDH-5 (300 nM)” value in data set [1] came to 262 µM. The molecule further yielded a Kd in data set [2] of 240 µM.

B2: polypeptide LP-22 (peptide)
peptide: LEDKLKGEMMDLQHGSLFLQTP-NH2
notes: Synthetic peptide bought from Genecust; also called "cluster B1"-derived polypeptide
Take B2: binding in data set [2] was characterised by a dissociation constant (Kd) of 156 µM.
